± gives the uncertainty stated by the source.

This data set can be described thus: self-splicing fitness, log relative to wild type (ln ratio); higher = more splicing; Tetrahymena group I intron in knt gene, E. coli kanamycin selection, DiMSum; sequences stand for … in CUCUCU…GGAGGGAAAAGUUAUCAGGCAUGCACCUGGUAGCUAGUCUUUAAACCAAUAGAUUGCAUCGGUUUAAAAGGCAAGACCGUCAAAUUGCGGGAAAGGGGUCAACAGCCGUUCAGUACCAAGUCUCAGGGGAAACUUUGAGAUGGCCUUGCAAAGGGUAUGGUAAUAAGCUGACGGACAUGGUCCUAACCACGCAGCCAAGUCCUAAGUCAACAGAUCUUCUGUUGAUAUGGAUGCAGUUCACAGACUAAAUGUCGGUCGGGGAAGAUGUAUUCUUCUCAUAAGAUAUAGUCGGACCUCUCCUUAAUGGGAGCUAGCGGAUGAAGUGAUGCAACACUGGAGCCGCUGGGAACUAAUUUGUAUGCGAAAGUAUAUUGAUUAGUUUUGGAGUACUCGUGGUCG
The method in brief: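 A randomised library covering all eight P1ex-region intron nucleotides was built with the intron in the knt kanamycin-resistance gene on pET-22b(+) and held in E. coli BL21(DE3). Cells were grown overnight at 37°C or 30°C on LB agar, with or without 25 μg/mL kanamycin, plus 100 μg/mL carbenicillin, 50 μM IPTG and 0.2% rhamnose, and pooled colonies were amplicon-sequenced on an Illumina HiSeq 2500. DiMSum fitness is the error-weighted combination of wild-type-normalised replicate fold changes, kanamycin versus none.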

As for UCAUAGCAAUAUUACGACUC, the “self-splicing fitness (ln)” value by setting is: (30 °C) -2.18 ± 0.37; (37 °C) -1.46 ± 0.37.
The matching figures for UCAUAGCAAUAUUACGAGAC: -2.84 ± 0.31 and -2.03 ± 0.34.
The matching figures for UCAUAGCAAUAUUACGAGCG: -1.95 ± 0.12 and -0.509 ± 0.13.
For UCAUAGCAAUAUUACGAGCU, in that order: -2.69 ± 0.26 and -2.72 ± 0.3.
As for UCAUAGCAAUAUUACGAGGA, the “self-splicing fitness (ln)” value reads like this: (30 °C) -3.42 ± 0.34; (37 °C) -0.473 ± 0.21.
UCAUAGCAAUAUUACGAGGG: the “self-splicing fitness (ln)” value by setting is: (30 °C) -2.24 ± 0.21; (37 °C) -1.83 ± 0.29.
As to UCAUAGCAAUAUUACGAUUA, the “self-splicing fitness (ln)” value (30 °C) is -0.984 ± 0.17 and the “self-splicing fitness (ln)” value (37 °C) was -0.81 ± 0.25.
Consider UCAUAGCAAUAUUACGCCUC, for which the “self-splicing fitness (ln)” value (30 °C) is -2.43 ± 0.31 and the “self-splicing fitness (ln)” value (37 °C) was -1.04 ± 0.2.
Regarding UCAUAGCAAUAUUACGCGAC, the “self-splicing fitness (ln)” value (37 °C) is -1.46 ± 0.46.
In the case of UCAUAGCAAUAUUACGCGCG, the “self-splicing fitness (ln)” value reads like this: (30 °C) -0.405 ± 0.3; (37 °C) -0.412 ± 0.21.
Regarding UCAUAGCAAUAUUACGCGCU, the “self-splicing fitness (ln)” value (30 °C) was -3.22 ± 0.42.
Turning to UCAUAGCAAUAUUACGCGUA, the “self-splicing fitness (ln)” value is -1.44 ± 0.09 (30 °C) and -0.884 ± 0.08 (37 °C).
The matching figures for UCAUAGCAAUAUUACGCUUG: -1.97 ± 0.15 and -2 ± 0.19.
The matching figures for UCAUAGCAAUAUUACGGAGU: -3.88 ± 0.34 and -2.86 ± 0.25.
For UCAUAGCAAUAUUACGGAUG, in that order: -2.58 ± 0.21 and -2.07 ± 0.21.
For UCAUAGCAAUAUUACGUAUU, the “self-splicing fitness (ln)” value was -2.48 ± 0.22 (30 °C) and -2.85 ± 0.27 (37 °C).
For UCAUAGCAAUAUUACGUCCG, in that order: 0.46 ± 0.24 and -1.67 ± 0.29.
For UCAUAGCAAUAUUACGUGGG, in that order: -3.39 ± 0.16 and -1.75 ± 0.098.
For UCAUAGCAAUAUUACGUUAC, in that order: -3.58 ± 0.29 and -3.01 ± 0.33.
As for UCAUAGCAAUAUUACGUUUC, the “self-splicing fitness (ln)” value was -3.79 ± 0.43 (30 °C) and -1.72 ± 0.23 (37 °C).
For UCCAAGCAAUAUUACGAAAA, in that order: -2.15 ± 0.18 and -0.93 ± 0.12.
The matching figures for UCCAAGCAAUAUUACGAAGG: -1.32 ± 0.11 and -0.206 ± 0.15.
Take UCCAAGCAAUAUUACGAGAU: the “self-splicing fitness (ln)” value (30 °C) was -3.54 ± 0.18.
For the sequence UCCAAGCAAUAUUACGAGGA, the “self-splicing fitness (ln)” value was -2.7 ± 0.2 (30 °C) and -2.3 ± 0.23 (37 °C).
UCCAAGCAAUAUUACGAUCC: the “self-splicing fitness (ln)” value (37 °C) was -0.628 ± 0.48.
As for UCCAAGCAAUAUUACGAUUU, the “self-splicing fitness (ln)” value (30 °C) was -3.72 ± 0.26 and the “self-splicing fitness (ln)” value (37 °C) is -2.71 ± 0.28.
With UCCAAGCAAUAUUACGCCCA, the “self-splicing fitness (ln)” value by setting is: (30 °C) -0.733 ± 0.14; (37 °C) -1.07 ± 0.21.
On to UCCAAGCAAUAUUACGCGUC, for which the “self-splicing fitness (ln)” value is, setting by setting: (30 °C) -3.21 ± 0.1; (37 °C) -2.63 ± 0.11.
Turning to UCCAAGCAAUAUUACGCUAG, the “self-splicing fitness (ln)” value (30 °C) was -3.67 ± 0.32 and the “self-splicing fitness (ln)” value (37 °C) is -3.6 ± 0.35.
Consider UCCAAGCAAUAUUACGGAAC, for which the “self-splicing fitness (ln)” value (37 °C) was -3.52 ± 0.35.
On to UCCAAGCAAUAUUACGGACA, for which the “self-splicing fitness (ln)” value reads like this: (30 °C) -2.37 ± 0.11; (37 °C) -0.757 ± 0.084.
For UCCAAGCAAUAUUACGGCAA, in that order: -0.817 ± 0.095 and -0.0878 ± 0.095.
The matching figures for UCCAAGCAAUAUUACGGCGG: -1.42 ± 0.079 and -0.773 ± 0.092.
The matching figures for UCCAAGCAAUAUUACGGGAA: -1.07 ± 0.078 and -0.547 ± 0.079.
With UCCAAGCAAUAUUACGGGGC, the “self-splicing fitness (ln)” value (30 °C) was -4.07 ± 0.23 and the “self-splicing fitness (ln)” value (37 °C) was -3.13 ± 0.2.

Source of the values: the supplement of paper PMC7877785.
